Values of other authors, collected in article PMC4899099.

Molecular target: Carboxypeptidase E (UniProt P04836)
UniProt P04836, sequence (P04836 42-475): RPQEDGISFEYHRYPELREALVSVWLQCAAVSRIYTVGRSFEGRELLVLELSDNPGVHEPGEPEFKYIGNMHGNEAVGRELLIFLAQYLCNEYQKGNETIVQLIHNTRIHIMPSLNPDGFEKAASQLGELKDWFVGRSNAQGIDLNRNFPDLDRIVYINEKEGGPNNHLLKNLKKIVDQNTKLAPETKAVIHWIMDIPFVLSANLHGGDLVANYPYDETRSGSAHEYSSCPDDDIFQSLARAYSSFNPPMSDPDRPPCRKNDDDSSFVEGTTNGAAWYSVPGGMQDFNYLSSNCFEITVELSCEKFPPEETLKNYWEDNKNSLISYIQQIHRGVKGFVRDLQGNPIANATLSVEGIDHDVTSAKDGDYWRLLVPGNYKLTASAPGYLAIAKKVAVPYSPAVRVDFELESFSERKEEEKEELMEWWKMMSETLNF

- Kd: 6 µM
Substance: N-POMC(1-26) 1-26 (from UniProt P01190)
